{"source": "patent US7514207B2", "about": "“Methods of screening for compounds that decrease phosphorylation of merlin and may be useful in cancer treatment” (Massachusetts Institute of Technology, priority 2001, dated 2009)", "molecules": {"B1": {"name": "endogenous PAK1 of RT4 cells (protein)", "chain": "SNNGLDVQDKPPAPPMRNTSTMIGAGSKDPGTLNHGSKPLPPNPEEKKKKDRFYRSILAGDKTNKKKEKERPEISLPSDFEHTIHVGFDAVTGEFTGMPEQWARLLQTSNITKSEQKKNPQAVLDVLEFYNSKKTSNSQKYMSFTDKSAEDYNSSNTLNVKTVSETPAVPPVSEDEDDDDDATPPPVIAPRPEHTKSVYTRSVIEPLPVTPTRDVATSPISPTENNTTPPDALTRNTEKQKKKPKMSDEEILEKLRSIVSVGDPKKKYTRFEKIGQGASGTVYTAMDVATGQEVAIKQMNLQQQPKKELIINEILVMRENKNPNIVNYLDSYLVGDELWVVMEYLAGGSLTDVVTETCMDEGQIAAVCRECLQALEFLHSNQVIHRDIKSDNILLGMDGSVKLTDFGFCAQITPEQSKRSTMVGTPYWMAPEVVTRKAYGPKVDIWSLGIMAIEMIEGEPPYLNENPLRALYLIATNGTPELQNPEKLSAIFRDFLNRCLEMDVEKRGSAKELLQHQFLKIAKPLSSLTPLIAAAKEATKNNH"}, "B2": {"name": "PAK1 (transfected) (protein)", "chain": "MSNNGLDIQDKPPAPPMRNTSTMIGAGSKDAGTLNHGSKPLPPNPEEKKKKDRFYRSILPGDKTNKKKEKERPEISLPSDFEHTIHVGFDAVTGEFTGMPEQWARLLQTSNITKSEQKKNPQAVLDVLEFYNSKKTSNSQKYMSFTDKSAEDYNSSNALNVKAVSETPAVPPVSEDEDDDDDDATPPPVIAPRPEHTKSVYTRSVIEPLPVTPTRDVATSPISPTENNTTPPDALTRNTEKQKKKPKMSDEEILEKLRSIVSVGDPKKKYTRFEKIGQGASGTVYTAMDVATGQEVAIKQMNLQQQPKKELIINEILVMRENKNPNIVNYLDSYLVGDELWVVMEYLAGGSLTDVVTETCMDEGQIAAVCRECLQALEFLHSNQVIHRDIKSDNILLGMDGSVKLTDFGFCAQITPEQSKRSTMVGTPYWMAPEVVTRKAYGPKVDIWSLGIMAIEMIEGEPPYLNENPLRALYLIATNGTPELQNPEKLSAIFRDFLNRCLEMDVEKRGSAKELLQHQFLKIAKPLSSLTPLIAAAKEATKNNH"}, "B3": {"name": "PAK2 of NIH3T3 cell extracts (endogenous) (protein)", "chain": "SDNGELEDKPPAPPVRMSSTIFSTGGKDPLSANHSLKPLPSVPEEKKPRNKIISIFSGTEKGSKKKEKERPEISPPSDFEHTIHVGFDAVTGEFTGMPEQWARLLQTSNITKLEQKKNPQAVLDVLKFYDSNTVKQKYLSFTPPEKDGFPSGTPALNTKGSETSAVVTEEDDDDEDAAPPVIAPRPDHTKSIYTRSVIDPIPAPVGDSNVDSGAKSSDKQKKKAKMTDEEIMEKLRTIVSIGDPKKKYTRYEKIGQGASGTVFTATDVALGQEVAIKQINLQKQPKKELIINEILVMKELKNPNIVNFLDSYLVGDELFVVMEYLAGGSLTDVVTETCMDEAQIAAVCRECLQALEFLHANQVIHRDIKSDNVLLGMEGSVKLTDFGFCAQITPEQSKRSTMVGTPYWMAPEVVTRKAYGPKVDIWSLGIMAIEMVEGEPPYLNENPLRALYLIATNGTPELQNPEKLSPIFRDFLNRCLEMDVEKRGSAKELLQHPFLKLAKPLSSLTPLILAAKEAMKSNR"}, "B4": {"name": "PAK2 wild-type (transfected) (protein)", "chain": "MSDNGELEDKPPAPPVRMSSTIFSTGGKDPLSANHSLKPLPSVPEEKKPRHKIISIFSGTEKGSKKKEKERPEISPPSDFEHTIHVGFDAVTGEFTGMPEQWARLLQTSNITKLEQKKNPQAVLDVLKFYDSNTVKQKYLSFTPPEKDGFPSGTPALNAKGTEAPAVVTEEEDDDEETAPPVIAPRPDHTKSIYTRSVIDPVPAPVGDSHVDGAAKSLDKQKKKTKMTDEEIMEKLRTIVSIGDPKKKYTRYEKIGQGASGTVFTATDVALGQEVAIKQINLQKQPKKELIINEILVMKELKNPNIVNFLDSYLVGDELFVVMEYLAGGSLTDVVTETCMDEAQIAAVCRECLQALEFLHANQVIHRDIKSDNVLLGMEGSVKLTDFGFCAQITPEQSKRSTMVGTPYWMAPEVVTRKAYGPKVDIWSLGIMAIEMVEGEPPYLNENPLRALYLIATNGTPELQNPEKLSPIFRDFLNRCLEMDVEKRGSAKELLQHPFLKLAKPLSSLTPLIMAAKEAMKSNR"}, "B5": {"name": "PAK2 AID: auto-inhibitory domain of PAK2, residues 82-146, expressed from pcDNA3; dominant negative fragment (protein)", "chain": "HTIHVGFDAVTGEFTGMPEQWARLLQTSNITKLEQKKNPQAVLDVLKFYDSNTVKQKYLSFTPPE"}, "B6": {"name": "PAK3 (transfected) (protein)", "chain": "MSDGLDNEEKPPAPPLRMNSNNRDSSALNHSSKPLPMAPEEKNKKARLRSIFPGGGDKTNKKKEKERPEISLPSDFEHTIHVGFDAVTGEFTGIPEQWARLLQTSNITKLEQKKNPQAVLDVLKFYDSKETVNNQKYMSFTSGDKSAHGYIAAHPSSTKTASEPPLAPPVSEEEDEEEEEEEDENEPPPVIAPRPEHTKSIYTRSVVESIASPAVPNKEVTPPSAENANSSTLYRNTDRQRKKSKMTDEEILEKLRSIVSVGDPKKKYTRFEKIGQGASGTVYTALDIATGQEVAIKQMNLQQQPKKELIINEILVMRENKNPNIVNYLDSYLVGDELWVVMEYLAGGSLTDVVTETCMDEGQIAAVCRECLQALDFLHSNQVIHRDIKSDNILLGMDGSVKLTDFGFCAQITPEQSKRSTMVGTPYWMAPEVVTRKAYGPKVDIWSLGIMAIEMVEGEPPYLNENPLRALYLIATNGTPELQNPERLSAVFRDFLNRCLEMDVDRRGSAKELLQHPFLKLAKPLSSLTPLIIAAKEAIKNSSR"}}, "key": {"[1]": {"system": "merlin kinase", "experiment": "In-vitro merlin kinase assay with kinase inhibitors", "assay_type": "biochemical", "settings": "for concentration range inhibiting the merlin kinase: inhibition of the activity of the merlin kinase"}, "[2]": {"molecular_target": "merlin expressed from an inducible allele in the RT4-D6P2T cell line"}, "[3]": {"molecular_target": "T1, GST-merlin pseudo-substrate (residues 478-535 of merlin fused to glutathione-S-transferase), P35240", "T1 chain": "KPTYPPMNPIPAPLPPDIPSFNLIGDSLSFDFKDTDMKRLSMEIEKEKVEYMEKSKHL"}, "[4]": {"system": "phosphorylation of merlin induced by activated Rac or cdc42", "experiment": "In-vivo merlin phosphorylation in co-transfected NIH3T3 cells (western blot)", "assay_type": "cell-based", "settings": "NIH3T3 cells co-transfected with merlin, activated Rac or cdc42 and the PAK2 AID", "description": "In the in-vitro kinase assays where full-length merlin was used, cells transfected with merlin expression vectors were extracted, and merlin was immunoprecipitated using a commercially available antibody SC-331 (Santa Cruz) and Protein A-agarose beads. In the in-vivo studies, cells were transfected with various expression vectors and harvested after 48 hours into SDS-boiling buffer (10 mM Tris pH 7.5, 50 mM NaF, and 1% SDS). Cells were scraped off the plates and boiled for 5′. Protein concentration was determined by the BCA method (Pierce) and resolved by 9% SDS-PAGE and western blot analysis.\nThe inhibitory fragment in PAK2 resides between residues 82-146 (equivalent to the 83-149 AID of PAK1). […] To further investigate the role of PAK2 in induction of merlin phosphorylation, the ability of the AID to inhibit this activity was assessed. NIH3T3 cells were co-transfected with expression vectors for merlin, activated Rac, or cdc42 and the PAK2 AID."}}, "data": [{"molecule": "NCCNS(=O)(=O)c1cccc2cnccc12", "note": "[H9]", "values": [{"measurement": "concentration up to which no effect on the merlin kinase was seen", "setting": "[1]; no effect up to this concentration", "result": "> 1", "unit": "mM"}]}, {"molecule": "COC(=O)[C@@]1(O)C[C@H]2O[C@]1(C)n1c3ccccc3c3c4c(c5c6ccccc6n2c5c31)C(=O)NC4", "note": "[K252a]", "values": [{"measurement": "concentration range inhibiting the merlin kinase", "setting": "[1]", "result": "mM range"}]}, {"molecule": "CCCCCCOC(=O)[C@]1(O)C[C@@H]2O[C@@]1(C)n1c3ccccc3c3c4c(c5c6ccccc6n2c5c31)C(=O)NC4", "note": "[K-5720]", "values": [{"measurement": "concentration range inhibiting the merlin kinase", "setting": "[1]", "result": "mM range"}]}, {"molecule": "B1", "values": [{"measurement": "phosphorylation status (activation) of PAK1 by 2-dimensional protein analysis", "setting": "[2]", "result": "The basal levels of activated PAK1 were reduced under conditions of high merlin expression compared to conditions of low merlin expression"}]}, {"molecule": "B2", "values": [{"measurement": "phosphorylation of the pseudo-substrate in an in-vitro kinase assay", "setting": "[3]", "result": "Other kinases, which are known effectors of cdc42/Rac, including PAK1, LIM-kinase and JNK, did not induce phosphorylation of merlin in these assays"}]}, {"molecule": "B3", "values": [{"measurement": "kinase activity on the GST-merlin substrate after immunodepletion of PAK2", "setting": "[3]", "result": "extracts immunodepleted for PAK2 (+PAK2 Ab) had a 2-3 fold reduction in kinase activity"}]}, {"molecule": "B4", "values": [{"measurement": "phosphorylation of the pseudo-substrate in an in-vitro kinase assay", "setting": "[3]", "result": "Only extracts from cells transfected with PAK2 and PAK3 were able to effectively phosphorylate the pseudo-substrate"}]}, {"molecule": "B5", "values": [{"measurement": "decrease in the ratio of hyper-phosphorylated to hypo-phosphorylated merlin", "setting": "[4]", "result": "3-4 fold"}]}, {"molecule": "B6", "values": [{"measurement": "phosphorylation of the pseudo-substrate in an in-vitro kinase assay", "setting": "[3]", "result": "Only extracts from cells transfected with PAK2 and PAK3 were able to effectively phosphorylate the pseudo-substrate"}]}]}
